IntAct's records for PubMed 24981741

B1: Protein LYRIC (Homo sapiens), Q86UE4 (parent)
chain: MAARSWQDELAQQAEEGSARLREMLSVGLGFLRTELGLDLGLEPKRYPGWVILVGTGALGLLLLFLLGYGWAAACAGARKKRRSPPRKREEAAAVPAAAPDDLALLKNLRSEEQKKKNRKKLSEKPKPNGRTVEVAEGEAVRTPQSVTAKQPPEIDKKNEKSKKNKKKSKSDAKAVQNSSRHDGKEVDEGAWETKISHREKRQQRKRDKVLTDSGSLDSTIPGIENTITVTTEQLTTASFPVGSKKNKGDSHLNVQVSNFKSGKGDSTLQVSSGLNENLTVNGGGWNEKSVKLSSQISAGEEKWNSVSPASAGKRKTEPSAWSQDTGDANTNGKDWGRSWSDRSIFSGIGSTAEPVSQSTTSDYQWDVSRNQPYIDDEWSGLNGLSSADPNSDWNAPAEEWGNWVDEERASLLKSQEPIPDDQKVSDDDKEKGEGALPTGKSKKKKKKKKKQGEDNSTAQDTEELEKEIREDLPVNTSKTRPKQEKAFSLKTISTSDPAEVLVKNSQPIKTLPPATSTEPSVILSKSDSDKSSSQVPPILQETDKSKSNTKQNSVPPSQTKSETSWESPKQIKKKKKARRET
B2: Protein LYRIC (Mus musculus), Q80WJ7 (parent)
chain: MAARSWQDELAQQAEEGSARLRELLSVGLGFLRTELGLDLGLEPKRYPGWVILVGTGALGLLLLFLLGYGWAAACAGARKKRRSPPRKREEAAPPTPAPDDLAQLKNLRSEEQKKKNRKKLPEKPKPNGRTVEVPEDEVVRNPRSITAKQAPETDKKNEKSKKNKKKSKSDAKAVQNSSRHDGKEVDEGAWETKISHREKRQQRKRDKVLTDSGSLDSTIPGIENIITVTTEQLTTASFPVGSKKNKGDSHLNVQVSNFKSGKGDSTLQVSSRLNENLTVNGGGWSEKSVKLSSQLSEEKWNSVPPASAGKRKTEPSAWTQDTGDTNANGKDWGRNWSDRSIFSGIGSTAEPVSQSTTSDYQWDVSRNQPYIDDEWSGLNGLSSADPSSDWNAPAEEWGNWVDEDRASLLKSQEPISNDQKVSDDDKEKGEGALPTGKSKKKKKKKKKQGEDNSHTQDTEDLEKDTREELPVNTSKARPKQEKACSLKTMSTSDPAEVLIKNSQPVKTLPPAISAEPSITLSKGDSDNSSSQVPPMLQDTDKPKSNAKQNSVPPSQTKSETNWESPKQIKKKKKARRET
partner: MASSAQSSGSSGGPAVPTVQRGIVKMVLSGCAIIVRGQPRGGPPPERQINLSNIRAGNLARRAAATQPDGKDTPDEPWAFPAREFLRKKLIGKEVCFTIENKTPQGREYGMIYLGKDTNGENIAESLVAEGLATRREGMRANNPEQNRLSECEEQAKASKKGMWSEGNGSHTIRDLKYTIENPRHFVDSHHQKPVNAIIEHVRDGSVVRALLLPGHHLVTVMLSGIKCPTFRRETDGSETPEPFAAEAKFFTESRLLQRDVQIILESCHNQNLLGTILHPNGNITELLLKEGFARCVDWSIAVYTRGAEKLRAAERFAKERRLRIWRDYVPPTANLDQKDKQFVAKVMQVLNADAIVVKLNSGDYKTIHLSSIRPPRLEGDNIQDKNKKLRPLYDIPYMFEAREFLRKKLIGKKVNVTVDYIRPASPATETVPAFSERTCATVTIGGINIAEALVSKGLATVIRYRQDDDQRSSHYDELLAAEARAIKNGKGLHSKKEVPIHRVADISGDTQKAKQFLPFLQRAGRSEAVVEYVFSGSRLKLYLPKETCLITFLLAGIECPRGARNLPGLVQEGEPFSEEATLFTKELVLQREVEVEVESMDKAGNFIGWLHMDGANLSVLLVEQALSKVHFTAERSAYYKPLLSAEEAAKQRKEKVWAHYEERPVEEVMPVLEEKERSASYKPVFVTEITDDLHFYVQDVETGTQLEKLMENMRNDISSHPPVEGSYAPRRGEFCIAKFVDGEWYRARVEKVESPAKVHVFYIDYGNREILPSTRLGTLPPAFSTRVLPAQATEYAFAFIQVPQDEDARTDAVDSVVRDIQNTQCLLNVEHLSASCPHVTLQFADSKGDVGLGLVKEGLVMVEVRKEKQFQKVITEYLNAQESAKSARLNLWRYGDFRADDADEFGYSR

Variants of: B1
Conditions: with snd1_human SND1, Q7KZF4
snd1_human SND1, Q7KZF4, sequence (Q7KZF4 whole entry): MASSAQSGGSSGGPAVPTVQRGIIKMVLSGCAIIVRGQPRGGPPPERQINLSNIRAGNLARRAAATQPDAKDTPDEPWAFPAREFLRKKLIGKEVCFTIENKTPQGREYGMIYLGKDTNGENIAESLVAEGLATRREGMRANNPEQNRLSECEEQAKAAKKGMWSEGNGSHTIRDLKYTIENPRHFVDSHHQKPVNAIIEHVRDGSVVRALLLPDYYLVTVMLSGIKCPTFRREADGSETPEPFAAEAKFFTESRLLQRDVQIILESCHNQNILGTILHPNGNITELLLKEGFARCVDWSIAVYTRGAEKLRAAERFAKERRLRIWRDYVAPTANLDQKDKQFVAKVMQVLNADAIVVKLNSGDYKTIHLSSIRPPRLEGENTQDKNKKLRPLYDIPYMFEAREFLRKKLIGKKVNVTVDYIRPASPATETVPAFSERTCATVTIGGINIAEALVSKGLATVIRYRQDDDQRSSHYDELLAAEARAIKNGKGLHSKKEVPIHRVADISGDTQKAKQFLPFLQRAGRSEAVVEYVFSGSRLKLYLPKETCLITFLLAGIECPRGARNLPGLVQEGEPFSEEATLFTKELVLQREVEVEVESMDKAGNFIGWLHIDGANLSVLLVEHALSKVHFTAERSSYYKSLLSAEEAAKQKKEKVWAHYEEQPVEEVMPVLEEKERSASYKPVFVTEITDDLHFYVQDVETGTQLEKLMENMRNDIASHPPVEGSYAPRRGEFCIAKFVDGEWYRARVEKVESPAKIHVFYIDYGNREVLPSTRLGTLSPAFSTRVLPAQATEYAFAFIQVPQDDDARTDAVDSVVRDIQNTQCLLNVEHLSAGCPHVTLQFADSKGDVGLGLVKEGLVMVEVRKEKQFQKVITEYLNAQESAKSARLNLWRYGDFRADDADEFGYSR

effect of a mutation on the interaction	Variant
disrupting interaction strength	E399R;E400R;W401D
disrupting interaction strength	D389R;D393R;W394D
disrupting interaction strength	W394D
decreasing interaction strength	W401D

Variants of: B1
Conditions: with snd1_human SND1, Q7KZF4
Remark: another data set of the same source

effect of a mutation on the interaction	Variant
disrupting interaction strength	D389R;D393R;W394D

Variants of: B2
Conditions: with snd1_mouse Snd1, Q78PY7

effect of a mutation on the interaction	Variant
disrupting interaction strength	D386R;D390R;W391D
disrupting interaction strength	W391D
disrupting interaction strength	E396R;E397R;W398D
disrupting interaction strength	W398D
